Measured values published in article PMC7949130.

Key:
[1] = biological target: nonsulfated human cationic trypsin purified from E. coli (human); assay: dissociation rate assay (recovery of trypsin activity after dilution of the complex); complex of 11 nM SPINK1 and 10 nM trypsin formed for 1 h at 23 °C, diluted to 50-200 pM with 0.6 mM Z-Gly-Pro-Arg-AMC, 0.1 M Tris-HCl (pH 8.0), 150 mM NaCl, 1 mM CaCl2, 0.05% Tween 20, room temperature, followed for 1 h
[2] = biological target: native sulfated human cationic trypsin purified from pancreatic juice (human); assay: as above
[3] = biological target: nonsulfated human cationic trypsin purified from E. coli (human); assay: equilibrium binding assay (free trypsin activity on a fluorogenic substrate); fixed trypsin incubated with increasing SPINK1, 0.2 ml, 0.1 M Tris-HCl (pH 8.0), 150 mM NaCl, 1 mM CaCl2, 0.05% Tween 20, 15 h; free trypsin measured with Z-Gly-Pro-Arg-AMC; apparent KD, global fit of at least three experiments
[4] = biological target: sulfated human cationic trypsin purified from the conditioned medium of transfected HEK 293T cells (human); assay: as above
[5] = biological target: nonsulfated human cationic trypsin purified from the conditioned medium of transfected HEK 293T cells (human); assay: as above
[6] = biological target: native sulfated human cationic trypsin purified from pancreatic juice (human); assay: as above
[7] = biological target: nonsulfated human cationic trypsin purified from E. coli (human); assay: discontinuous association rate assay (residual trypsin activity); 50 pM trypsin mixed with 500 pM SPINK1, 0.1 M Tris-HCl (pH 8.0), 150 mM NaCl, 1 mM CaCl2, 0.05% Tween 20, 23 °C; kon from the pseudo-first-order rate constant divided by the inhibitor concentration
[8] = biological target: native sulfated human cationic trypsin purified from pancreatic juice (human); assay: as above
[9] = biological target: native sulfated human cationic trypsin purified from pancreatic juice (human); assay: equilibrium binding assay (free trypsin activity on a fluorogenic substrate); fixed trypsin incubated with increasing SPINK1, 0.2 ml, 0.1 M Tris-HCl (pH 8.0), 150 mM NaCl, 1 mM CaCl2, 0.05% Tween 20, 15 h; free trypsin measured with Z-Gly-Pro-Arg-AMC; apparent KD, global fit of at least three experiments; remark: listed apart in the source
[10] = biological target: nonsulfated human cationic trypsin purified from E. coli (human); assay: KD calculated from the rate constants (association and dissociation rate assays); KD(calc): equilibrium dissociation constant calculated from kon and koff of the activity-based rate assays
[11] = biological target: native sulfated human cationic trypsin purified from pancreatic juice (human); assay: as above
[12] = biological target: nonsulfated human cationic trypsin purified from E. coli (human); assay: equilibrium binding assay (free trypsin activity on a fluorogenic substrate); fixed trypsin incubated with increasing SPINK1, 0.2 ml, 0.1 M Tris-HCl (pH 8.0), 150 mM NaCl, 1 mM CaCl2, 0.05% Tween 20, 15 h; free trypsin measured with Z-Gly-Pro-Arg-AMC; apparent KD, global fit of at least three experiments; remark: listed apart in the source
[13] = biological target: native sulfated human cationic trypsin purified from pancreatic juice (human); assay: equilibrium binding assay (free trypsin activity on a fluorogenic substrate); as the equilibrium assay but K41N SPINK1 incubated with trypsin for 1 h; 0.1 M Tris-HCl (pH 8.0), 150 mM NaCl, 1 mM CaCl2, 0.05% Tween 20; apparent KD

B1: serine protease inhibitor Kazal type 1 (SPINK1), wildtype, C-terminal 10His tag (natural protein)
chain: DSLGREAKCYNELNGCTKIYDPVCGTDGNTYPNECVLCFENRKRQTSILIQKSGPC
Binder B1 has a koff [1] of 8.2e-06 s⁻¹, a koff [2] of 5.48e-05 s⁻¹ and a Kd [3] of 0.0011 nM. For the same binder, the Kd [4] was 0.0402 nM, the Kd [5] was 0.0044 nM and the Kd [6] was 0.0622 nM. For the same binder, the kon [7] was 3e+06 M⁻¹ s⁻¹, the kon [8] was 3.5e+06 M⁻¹ s⁻¹ and the Kd [9] was 0.0674 nM. The Kd [10] was 0.0027 nM and the Kd [11] was 0.0158 nM.

B2: SPINK1 mutant Y43R (natural protein)
chain: DSLGREAKCYNELNGCTKIRDPVCGTDGNTYPNECVLCFENRKRQTSILIQKSGPC
With B2 the Kd [12] was 0.104 nM and the Kd [9] was 0.0271 nM.

B3: SPINK1 variant K41N, C-terminal 10His tag (natural protein)
chain: DSLGREAKCYNELNGCTNIYDPVCGTDGNTYPNECVLCFENRKRQTSILIQKSGPC
In the case of B3, the Kd [13] is reported as 1290 nM.

B4: SPINK1 variant N34S, C-terminal 10His tag (natural protein)
chain: DSLGREAKCYSELNGCTKIYDPVCGTDGNTYPNECVLCFENRKRQTSILIQKSGPC
B4 gave a koff [1] of 7e-06 s⁻¹, a koff [2] of 4.5e-05 s⁻¹ and a Kd [3] of 0.0015 nM. The Kd [4] was 0.0375 nM, the Kd [5] was 0.0047 nM and the Kd [6] was 0.0323 nM. It also gave a kon [7] of 5.3e+06 M⁻¹ s⁻¹, a kon [8] of 2.7e+06 M⁻¹ s⁻¹ and a Kd [10] of 0.0013 nM. For the same binder, the Kd [11] was 0.0164 nM.

B5: SPINK1 variant R65Q, C-terminal 10His tag (natural protein)
chain: DSLGREAKCYNELNGCTKIYDPVCGTDGNTYPNECVLCFENQKRQTSILIQKSGPC
B5 was tested, and the Kd [6] was 0.0592 nM.

B6: SPINK1 mutant Y43A (natural protein)
chain: DSLGREAKCYNELNGCTKIADPVCGTDGNTYPNECVLCFENRKRQTSILIQKSGPC
For B6, the Kd [12] was 0.0203 nM and the Kd [9] was 0.0622 nM.

B7: SPINK1 variant P55S, C-terminal 10His tag (natural protein)
chain: DSLGREAKCYNELNGCTKIYDPVCGTDGNTYSNECVLCFENRKRQTSILIQKSGPC
B7 gave a Kd [6] of 0.101 nM.

B8: SPINK1 variant Q68R, C-terminal 10His tag (natural protein)
chain: DSLGREAKCYNELNGCTKIYDPVCGTDGNTYPNECVLCFENRKRRTSILIQKSGPC
With B8 the Kd [6] was 0.068 nM.

B9: SPINK1 variant N37S, C-terminal 10His tag (natural protein)
chain: DSLGREAKCYNELSGCTKIYDPVCGTDGNTYPNECVLCFENRKRQTSILIQKSGPC
B9 was tested, and the Kd [6] was 0.0869 nM.

B10: SPINK1 variant I42M, C-terminal 10His tag (natural protein)
chain: DSLGREAKCYNELNGCTKMYDPVCGTDGNTYPNECVLCFENRKRQTSILIQKSGPC
B10 gave a Kd [6] of 0.2 nM.
